Assay results from the supplement of paper PMC10065799, “High-throughput profiling of sequence recognition by tyrosine kinases and SH2 domains using bacterial peptide display” (eLife, 2023).
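Also: 11-residue human phosphosite peptides and single-mutation variants displayed on the E. coli surface, counted by deep sequencing, each peptide's frequency after selection divided by its frequency in the unselected input library; frequency after pTyr selection over input frequency; kinase dosed for 20-30% of maximal phosphorylation in three min.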

What follows are sequences tested against EPHB2 (UniProt P29323) (assay: phosphorylation enrichment, bacterial display (enrichment ratio); higher = better substrate or ligand; peptides without Tyr show the background).
EPHB2, sequence (P29323 whole entry, looked up): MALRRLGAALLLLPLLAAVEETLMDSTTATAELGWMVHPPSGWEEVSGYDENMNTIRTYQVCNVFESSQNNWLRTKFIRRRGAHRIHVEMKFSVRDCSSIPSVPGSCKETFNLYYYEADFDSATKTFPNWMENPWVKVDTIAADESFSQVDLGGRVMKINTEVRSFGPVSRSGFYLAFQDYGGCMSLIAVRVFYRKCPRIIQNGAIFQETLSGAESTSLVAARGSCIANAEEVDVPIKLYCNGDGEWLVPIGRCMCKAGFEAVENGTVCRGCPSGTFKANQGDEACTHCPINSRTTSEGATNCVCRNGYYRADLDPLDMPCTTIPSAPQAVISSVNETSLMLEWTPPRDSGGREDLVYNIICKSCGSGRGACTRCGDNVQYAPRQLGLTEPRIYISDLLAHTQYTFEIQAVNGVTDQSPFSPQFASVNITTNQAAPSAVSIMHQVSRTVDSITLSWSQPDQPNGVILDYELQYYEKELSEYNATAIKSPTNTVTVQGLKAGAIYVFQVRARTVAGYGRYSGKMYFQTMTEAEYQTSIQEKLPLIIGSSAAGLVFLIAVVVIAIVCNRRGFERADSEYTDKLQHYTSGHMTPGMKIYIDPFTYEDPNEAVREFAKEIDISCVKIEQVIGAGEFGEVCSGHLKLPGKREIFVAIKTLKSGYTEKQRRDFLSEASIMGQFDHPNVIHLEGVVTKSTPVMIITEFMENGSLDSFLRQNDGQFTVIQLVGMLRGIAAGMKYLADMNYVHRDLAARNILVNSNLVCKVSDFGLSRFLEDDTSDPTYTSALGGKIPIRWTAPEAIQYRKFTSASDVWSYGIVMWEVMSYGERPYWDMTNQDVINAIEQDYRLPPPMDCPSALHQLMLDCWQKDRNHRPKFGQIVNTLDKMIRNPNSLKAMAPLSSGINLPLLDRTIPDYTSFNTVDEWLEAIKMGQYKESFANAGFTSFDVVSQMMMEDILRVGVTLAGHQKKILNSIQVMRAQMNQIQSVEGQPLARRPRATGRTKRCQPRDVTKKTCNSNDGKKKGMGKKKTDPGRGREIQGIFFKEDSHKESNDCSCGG
For ASPALYRLDLD [TRIL_Y352], the phosphorylation enrichment was 0.596. LYEDRYLLGPS [ASS1_Y87_T91P] showed a phosphorylation enrichment of 1.4. For FGLPRYRWLTH [TSPAN12_Y143_YF], the phosphorylation enrichment was 0.692. With AEQDWYHGAIP [FER_Y461] the phosphorylation enrichment was 0.546. EGNERYEGYCV [GRIA3_Y451] gave a phosphorylation enrichment of 0.562. In the case of QAKRKYQEASK [FES_Y156], the phosphorylation enrichment was 0.459. SDQPDYDSVAS [GIT2_Y392_N387S] showed a phosphorylation enrichment of 0.726. Sequence NVADHYRVFKP [ATP6V0D2_Y271_G272R_YF] has a phosphorylation enrichment of 0.361. With LARHMYDKEFF [MET_Y1230_D1228H_YF] the phosphorylation enrichment was 0.438. In the case of RMGNLYDIDED [GRIN2A_Y1246], the phosphorylation enrichment was 0.491. For SVTCTYSPALF [TP53_Y126_N131Y_YF], the phosphorylation enrichment was 0.694. FSALDYKIFYY [WDPCP_Y210_L205F] gave a phosphorylation enrichment of 0.588. PSTFRYERGSR [INPPL1_Y663_P659S_YF] gave a phosphorylation enrichment of 0.47. RHTRSYDYTEG [FGF7_Y56_M59T] showed a phosphorylation enrichment of 0.369. In the case of TGQEEYSAMRD [KRAS_Y64_A59T], the phosphorylation enrichment was 0.536. Work on NVKGIYAVGDV [GSR_Y371] yielded a phosphorylation enrichment of 0.564. For PFTRNYFVRAV [CYBA_Y87_YF], the phosphorylation enrichment was 0.708. Sequence SIKHKYVTALF [KCNH2_Y611_D609H_YF] has a phosphorylation enrichment of 0.474. For RGESFYQDTMN [RARS_Y338_R341T], the phosphorylation enrichment was 1.63. IITVHYVLEES [RYR2_Y4559_A4556T] gave a phosphorylation enrichment of 0.577. DRKRQYELLKL [KIF4B_Y684] showed a phosphorylation enrichment of 0.462. For DRIVNYSRASV [ATP7A_Y1459_I1464V], the phosphorylation enrichment was 0.438. RSRSPYSPVLR [CDK13_Y399] was tested, and the phosphorylation enrichment was 0.477. With RKLVDYDSARH [BIN1_Y150] the phosphorylation enrichment was 0.481. For ETKGDYEKILV [ANXA1_Y335], the phosphorylation enrichment was 0.625. With EIPTQYEAMAS [GFAP_Y242_R239P] the phosphorylation enrichment was 0.577. For DDSNPYINVKL [MTHFD1_Y52_L51P], the phosphorylation enrichment was 0.614. AHLTEYLSTHF [UQCRC1_Y219_D215H_YF] gave a phosphorylation enrichment of 0.499. LSGVIYVILWK [PMP22_Y153_R157W] showed a phosphorylation enrichment of 0.538. IVWDSYTTNKV [GNB3_Y85] showed a phosphorylation enrichment of 0.559. Work on PDGVEYLKNNP [GRIN3A_Y831_D835N] yielded a phosphorylation enrichment of 0.452. Sequence YEEDSYVERSQ [RET_Y905_K907E] has a phosphorylation enrichment of 0.722. Sequence PRSRSYSSTSI [REPS2_Y462] has a phosphorylation enrichment of 0.523.

These sequences were tested against FGFR1 (UniProt P11362) in the same assay as above.
FGFR1, sequence (P11362 whole entry, looked up): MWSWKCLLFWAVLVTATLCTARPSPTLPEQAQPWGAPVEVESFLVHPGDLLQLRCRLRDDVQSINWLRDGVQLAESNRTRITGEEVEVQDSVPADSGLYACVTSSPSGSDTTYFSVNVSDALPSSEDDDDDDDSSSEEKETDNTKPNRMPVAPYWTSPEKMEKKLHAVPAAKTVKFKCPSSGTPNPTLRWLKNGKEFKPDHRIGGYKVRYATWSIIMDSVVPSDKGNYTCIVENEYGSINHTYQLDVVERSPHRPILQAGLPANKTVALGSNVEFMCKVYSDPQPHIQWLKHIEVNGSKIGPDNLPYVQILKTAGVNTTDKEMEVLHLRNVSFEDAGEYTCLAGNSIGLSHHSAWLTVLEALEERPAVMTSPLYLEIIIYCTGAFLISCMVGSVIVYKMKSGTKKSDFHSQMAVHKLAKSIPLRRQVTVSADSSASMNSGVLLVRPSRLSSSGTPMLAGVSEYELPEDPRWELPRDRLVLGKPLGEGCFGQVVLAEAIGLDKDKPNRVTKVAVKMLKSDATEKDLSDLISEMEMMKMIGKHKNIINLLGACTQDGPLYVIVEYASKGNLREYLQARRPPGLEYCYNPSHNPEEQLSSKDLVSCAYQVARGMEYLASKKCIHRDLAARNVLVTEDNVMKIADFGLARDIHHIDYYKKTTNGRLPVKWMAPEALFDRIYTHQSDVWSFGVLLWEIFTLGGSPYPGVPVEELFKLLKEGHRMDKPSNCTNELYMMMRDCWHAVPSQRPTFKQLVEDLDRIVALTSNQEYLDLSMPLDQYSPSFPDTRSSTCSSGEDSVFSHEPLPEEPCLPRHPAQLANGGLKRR
With ASPALYRLDLD [TRIL_Y352] the phosphorylation enrichment was 0.552. For LYEDRYLLGPS [ASS1_Y87_T91P], the phosphorylation enrichment was 1.2. FGLPRYRWLTH [TSPAN12_Y143_YF] showed a phosphorylation enrichment of 0.529. Sequence AEQDWYHGAIP [FER_Y461] has a phosphorylation enrichment of 1.72. For EGNERYEGYCV [GRIA3_Y451], the phosphorylation enrichment was 0.575. With QAKRKYQEASK [FES_Y156] the phosphorylation enrichment was 0.495. Work on SDQPDYDSVAS [GIT2_Y392_N387S] yielded a phosphorylation enrichment of 0.625. NVADHYRVFKP [ATP6V0D2_Y271_G272R_YF] gave a phosphorylation enrichment of 0.459. For LARHMYDKEFF [MET_Y1230_D1228H_YF], the phosphorylation enrichment was 0.606. For RMGNLYDIDED [GRIN2A_Y1246], the phosphorylation enrichment was 0.591. SVTCTYSPALF [TP53_Y126_N131Y_YF] showed a phosphorylation enrichment of 0.542. Work on FSALDYKIFYY [WDPCP_Y210_L205F] yielded a phosphorylation enrichment of 1.23. PSTFRYERGSR [INPPL1_Y663_P659S_YF] showed a phosphorylation enrichment of 0.411. Sequence RHTRSYDYTEG [FGF7_Y56_M59T] has a phosphorylation enrichment of 0.488. Work on TGQEEYSAMRD [KRAS_Y64_A59T] yielded a phosphorylation enrichment of 0.538. NVKGIYAVGDV [GSR_Y371] gave a phosphorylation enrichment of 0.521. With PFTRNYFVRAV [CYBA_Y87_YF] the phosphorylation enrichment was 0.788. For SIKHKYVTALF [KCNH2_Y611_D609H_YF], the phosphorylation enrichment was 0.354. RGESFYQDTMN [RARS_Y338_R341T] was tested, and the phosphorylation enrichment was 0.695. With IITVHYVLEES [RYR2_Y4559_A4556T] the phosphorylation enrichment was 0.594. DRKRQYELLKL [KIF4B_Y684] showed a phosphorylation enrichment of 0.331. DRIVNYSRASV [ATP7A_Y1459_I1464V] gave a phosphorylation enrichment of 0.467. RSRSPYSPVLR [CDK13_Y399] gave a phosphorylation enrichment of 1.06. Work on RKLVDYDSARH [BIN1_Y150] yielded a phosphorylation enrichment of 0.571. In the case of ETKGDYEKILV [ANXA1_Y335], the phosphorylation enrichment was 0.548. For EIPTQYEAMAS [GFAP_Y242_R239P], the phosphorylation enrichment was 0.536. DDSNPYINVKL [MTHFD1_Y52_L51P] showed a phosphorylation enrichment of 0.631. AHLTEYLSTHF [UQCRC1_Y219_D215H_YF] gave a phosphorylation enrichment of 0.529. Work on LSGVIYVILWK [PMP22_Y153_R157W] yielded a phosphorylation enrichment of 0.358. In the case of IVWDSYTTNKV [GNB3_Y85], the phosphorylation enrichment was 0.501. With PDGVEYLKNNP [GRIN3A_Y831_D835N] the phosphorylation enrichment was 0.503. YEEDSYVERSQ [RET_Y905_K907E] gave a phosphorylation enrichment of 0.558. For PRSRSYSSTSI [REPS2_Y462], the phosphorylation enrichment was 0.743.
